According to patent publication US20160258940A1 (IMRA AMERICA, published 2016):
Primed or numbered codes have the meaning given here. Ends that are not written are not given here. FITC′ = fluorescein isothiocyanate

Biological target: T1, EpCAM (epithelial cell adhesion molecule) on the surface of HT29 colon cancer cells (UniProt P16422 24-314, limits assumed)
T1 construct: whole, on cells; HT29 is a human cell line
T1 sequence (looked up): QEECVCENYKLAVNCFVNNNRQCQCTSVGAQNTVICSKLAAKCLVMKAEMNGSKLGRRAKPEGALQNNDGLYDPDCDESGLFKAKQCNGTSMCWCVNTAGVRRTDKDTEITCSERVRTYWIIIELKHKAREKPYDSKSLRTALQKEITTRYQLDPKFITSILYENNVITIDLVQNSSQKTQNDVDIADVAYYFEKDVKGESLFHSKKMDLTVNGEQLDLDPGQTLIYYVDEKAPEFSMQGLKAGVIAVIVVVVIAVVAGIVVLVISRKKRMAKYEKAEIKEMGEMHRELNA
Assay: confocal fluorescence microscopy of HT29 spheroids with FITC-Ep114/PEG/gold nanoparticles (PEG ratios 100/1, 200/1, 300/1)
Protocol: A colon cancer cell line HT29 was used to conduct a cellular uptake test. First, by using 96 holes type culture plate for spheroids, EZ-Sphere™ (Asahi Glass Co., Ltd.), spheroid of HT29 cells was formed.
Specifically, HT29, 4×10⁵ cells were suspended in a culture medium in which 20 ng/ml of human EGF (manufactured by Miltenyi Biotec, K.K.), 20 ng/ml of human FGF-2 (manufactured by Miltenyi Biotec K.K.), 1/50 amount of B-27 supplement×50 (manufactured by GIBCO), and 1/100 amount of Penicillin-Streptomycin Solution×100 (manufactured by Wako Pure Chemical Industries, Ltd.) were added to 3 ml of D-MEM/F-12 medium (Dulbecco's Modified Eagle Medium: Nutrient Mixture F-12 1:1 Mixture, manufactured by GIBCO). The suspension was dispensed to each well of 200 μl, and was cultured in CO₂ incubator at 37° C. for 72 hours.
Then, a part of the spheroids (approximately 20 μl) and the gold particle-peptide complex were placed on a glass bottom dish (D110300, Matsunami Glass Ind., Ltd.), and irradiated laser of 488 nm with 40 magnification objective lens by using an inverted confocal laser microscope (FLUOVIEW FV1000IX81 type, manufactured by Olympus Corporation), and observed using a filter for Alexa488.

- binding result: binds
B1: EpCAM-binding peptide Ep114 (FITC-labelled), bound to PEG-covered gold nanoparticles (peptide)
peptide: {FITC′}-KHLQCVRNICWSGGK
modifications: cysteine pairing not given here; also: bound to PEG-covered gold nanoparticles
notes: In the assay the peptide covered approx. 15 nm gold nanoparticles that were partially covered with mPEG-SH 5k (PEG:particle ratios 100/1, 200/1, 300/1; 2000 peptides per particle); also called EP114 peptide
